The values below come from US11680267B2, “Co-regulatory sequences based on tetracycline and Cumate” (Shenzhen Eureka Biotechnology Co., Ltd., priority 2020, dated 2023).

This data set relates to 293T(T&C)-TRE3GCuO-Luc cells and 293T(T&C)-TRE3GCuO-BGI-Luc cells. The experiment in a line: Luciferase assay in stable cell lines under different combinations of DOX and Cumate (Example 5). It is filed as cell-based. Conditions: for induced transcription activity: 24 hours, stable cell line. An excerpt:
In this Example, stable cell lines, under complex regulation of Tet-ON and Cumate, TRE3GCuO or TRE3GCuO-intron, and with Luciferase as the reporter gene, were constructed. Then, based on these cell lines, induced transcription activities of the reporter gene under the following 4 induction conditions were detected: without inducer, Cumate only, DOX only or both DOX and Cumate inducers. In this Example, the Luciferase reporter gene was taken as an example, and in principle, the method of the present disclosure was not affected by the nucleic acid fragment of interest. The specific experimental methods were as follows:
293T cells were seeded at 1.5E+06 cells per 60 mm culture dish, and cultured in DMEM (Sigam, D6429) complete medium supplemented with 10% FBS (ExCell, 11H116) at 37° C. and 5% CO 2. After 24 hours of culture, transfection was carried out according to the PEI method. During transfection, 500 μL of transfection reagent which contained 5.5 ug of total plasmid was added to each 60 mm culture dish, and the mass ratio of total plasmid to PEI MAX (Polysciences, 24765-1) was 1:4; and thereby 3 Luciferase stable cell lines were constructed. The transfection plasmids were transfected at the 19BF075:19BF229:18BF019 molar ratio of 5:5:1 to obtain 293T(T&C)-CMV-BGI-Luc cells; the transfection plasmids were transfected at the 19BF075:19BF235:18BF019 molar ratio of 5:5:1 to obtain 293T(T&C)-TRE3GCuO-Luc cells; the transfection plasmids were transfected at the 19BF075:19BF237:18BF019 molar ratio of 5:5:1 to obtain 293T(T&C)-TRE3GCuO-BGI-Luc cells. The plasmid and PEI MAX were mixed uniformly, and then put into a culture dish after standing for 15 minutes. 3 hours after transfection, the medium was changed to a complete DMEM medium, and the transfection operation was completed. After 24 hours of transfection, the cells were digested with trypsin and all seeded in a 100 mm culture dish (Corning, 430167), and 200 μg/ml of hygromycin (Sangon Biotech A600230-0001) drug screening was performed for at least three passages. After the growth of cells under the pressure of drug screening was consistent with that of the original 293T cells, the above 3 cells were diluted to 1 cell per well by a limiting dilution method and seeded in a 96-well plate; when the cells grew to about 50% of the bottom area of the well, the wells with strong EGFP green fluorescence intensity and uniform luminescence were selected under the fluorescence microscope, and 3 independent clones of each cell were selected for the following experiments.
For the above 3 cells, 3 independent clones for each cell were seeded into a 96-well plate (Corning 3916) at 2.5E+04 cells per well, with 8 wells per clone, and the medium was 100 microliters of DMEM complete medium. After 24 hours of culture, the medium was replaced and the following reagents were added into the duplicate wells of the 8 wells for each cell: (1) the same amount of medium, (2) Cumate at a final concentration of 200 ug/ml, (3) DOX at a final concentration of 1 ug/ml, or (4) DOX at a final concentration of 1 ug/ml and Cumate at a final concentration of 200 ug/ml. After 24 hours of further culture, relative light unit RLU of each well was detected using a Steady-Glo® Luciferase Assay System (Promega, E2610) kit according to the instruction (Promega, FB037), wherein the detection instrument was a fluorescence microplate reader (Perkin Elmer Victor V).

B1: TRE3GCuO: Tet-On (7xTetO of TRE3G) and Cumate complex response element, CuO 50 bp behind the TATA box (SEQ ID NO: 23) (nucleic acid)
DNA: TCCCTATCAGTGATAGAGAACGTATGAAGAGTTTACTCCCTATCAGTGATAGAGAACGTATGCAGACTTTACTCCCTATCAGTGATAGAGAACGTATAAGGAGTTTACTCCCTATCAGTGATAGAGAACGTATGACCAGTTTACTCCCTATCAGTGATAGAGAACGTATCTACAGTTTACTCCCTATCAGTGATAGAGAACGTATATCCAGTTTACTCCCTATCAGTGATAGAGAACGTATTAGGCGTGTACGGTGGGCGCCTATAAAAGCAGAGCTCGTTTAGTGAACCGTCAGATCGCCTGGAGCAATTCCACATACAAACAGACCAGATTGTCTGTTTGTT
modifications: TRE3GCuO50 response element sequence
For the molecule B1, the induced transcription activity turned out to be 7.54E+06 RLU (adding both DOX 1 ug/ml and Cumate 200 ug/ml); 1.36E+04 RLU (only adding Cumate 200 ug/ml); 2.14E+05 RLU (only adding DOX 1 ug/ml). Moreover, the “induced transcription activity relative to no induction” value by setting is: (adding both DOX and Cumate) 2381.05 times; (only adding Cumate) 4.31 times; (only adding DOX) 67.66 times. Besides, the “induced transcription activity relative to only adding Cumate” value is, setting by setting: (adding both DOX and Cumate) 552.99 times; (only adding DOX) 15.71 times. For the same molecule, where the note is “adding both DOX and Cumate”, the “induced transcription activity relative to only adding DOX” value was 35.19 times. For the same molecule, the “maximum induced transcription activity as % of that of CMV promoter” value (both DOX and Cumate inducers added) is 47.84%.
